Experiments:
[1] = biological target: T1, human activated Protein C (human, Light chain (chain 1): the Gla domain holds gamma-carboxyglutamates, from memory at pos 6, 7, 14, 16, 19, 20, 25, 26 and 29, written E. Pos 71 is beta-hydroxy-Asp, written D. N-glycans are present. …); experiment: aPC-ELISA, human aPC coated, IgG titrated
T1 construct: also called aPC; APC
T1 light: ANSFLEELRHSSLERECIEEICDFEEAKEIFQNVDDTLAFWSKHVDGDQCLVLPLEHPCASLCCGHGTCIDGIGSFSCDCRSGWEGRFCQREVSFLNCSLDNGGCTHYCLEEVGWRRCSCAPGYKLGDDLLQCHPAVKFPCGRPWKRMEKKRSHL
T1 heavy: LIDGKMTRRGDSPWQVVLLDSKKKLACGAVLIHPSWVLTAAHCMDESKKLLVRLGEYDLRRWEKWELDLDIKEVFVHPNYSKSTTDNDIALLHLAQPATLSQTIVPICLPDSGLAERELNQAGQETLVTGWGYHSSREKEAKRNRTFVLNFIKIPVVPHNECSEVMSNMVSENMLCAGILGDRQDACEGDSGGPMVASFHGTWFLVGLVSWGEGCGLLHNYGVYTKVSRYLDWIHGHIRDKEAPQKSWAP
Experimental: (§1) Plates (Nunc, cat#442404) were coated with 100 μl of human aPC (1 μg/ml) or hPC (2 μg/ml) diluted in DPBS (Gibco, cat#14040) overnight (o/n) at 4° C. After washing, the ELISA plate was blocked with 200 μl MPBST for 1 hr at RT, and tapped dry on a stack of paper towels. To each well 100 μl of IgG to be tested was added, and incubated for 1 hr at RT (for EC₅₀ determinations 1:3 dilutions were performed starting at 20 nM). Plates were washed 5× with PBST. 100 μl of anti-hIgG Fc-HRP (Sigma, cat#A0170) diluted 1:10,000 in PBST was added to each well. Plates were washed and 100 μl/well of TMB substrate was added and incubated at room temperature for 5 min. 100 μl/well of 1 N HCl was added to terminate the reaction. The plate was read with an ELISA plate reader (Biotek, Elx405) at 450 nm wavelength.

[2] = biological target: T2, human Protein C (unactivated, zymogen) (human, UniProt P04070 43-461); experiment: ELISA, plate coated with human PC, IgG titrated (PC-ELISA)
T2 construct: mature; also called PC; hPC
Experimental: as §1

[3] = biological target: T1, human activated Protein C; experiment: SPR, human aPC
[4] = biological target: T2, human Protein C (unactivated, zymogen); experiment: PC-ELISA, hPC coated
Experimental: as §1

[5] = biological target: T1, human activated Protein C; experiment: Biacore (SPR)

Row | Binder | EC50 [1] [nM] | binding result [2] | Kd [3] [nM] | binding result [4] | Kd [5] [nM]
1 | TPP-3656 (HU1573-V3-hIgG2Kappa) (antibody, V domains shown, also called TPP-3656 VK7-3) VH: EVQLVESGGGLVQPGGSLRLSCAASGFTFSNYYLNWVRQAPGKGLEWVGDIRLKSNNYEKHYAESVKGRFTISRDDSKNSLYLQMNSLKTEDTAVYYCAREGDYFDYWGQGTLVTVSS VL: DIVLTQSPASLAVSPGQRATITCKASESVDSFGATFMHWYQQKPGQPPKLLIYLASNLESGVPARFSGSGSGTDFTLTINPVEANDTANYYCQQNNEDPYTFGQGTKLEIKR | 0.67 | no binding (tested: 10 µM (log M -5)) | – | – | –
2 | TPP-3657 (HU1573-V2-hIgG2Kappa) (antibody, V domains shown, also called TPP-3657 VK7-3) VH: EVQLVESGGGLVQPGGSLRLSCAASGFTFSNYYLNWVRQAPGKGLEWVADIKSNNYEKHYAESVKGRFTISRDNAKNSLYLQMNSLRAEDTAVYYCAREGDYFDYWGQGTLVTVSS VL: DIVLTQSPASLAVSPGQRATITCKASESVDSFGATFMHWYQQKPGQPPKLLIYLASNLESGVPARFSGSGSGTDFTLTINPVEANDTANYYCQQNNEDPYTFGQGTKLEIKR | 0.43 | no binding (tested: 10 µM (log M -5)) | – | – | –
3 | TPP-3356 (H1573VK2-VH1Cgl1-hIgG2Kappa) (antibody, V domains shown, also called TPP-3356 VK2D-29) VH: EVQLVESGGGLVQPGGSLRLSCAASGFTFSNYYLNWVRQAPGKGLEWVADIRLKSNNYEKHYAESVKGRFTISRDDSKNSLYLQMNSLKTEDTAVYYCIREGDYFDYWGQGTTVTVSS VL: DIVMTQTPLSLSVTPGQPASISCKASESVDSFGATFMHWYLQKPGQPPQLLIYLASNLESGVPDRFSGSGSGTDFTLKISRVEAEDVGVYYCQQNNEDPYTFGQGTKLEIKR | 0.5 | – | 13.6 | no binding (tested: up to 10 µM) | –
4 | TPP-3357 (H1573Vk2A-VH1Cgl2-hIgG2Kappa) (antibody, V domains shown) VH: EVQLVESGGGLVQPGGSLRLSCAASGFTFSSYYMNWVRQAPGKGLEWVSDIRLKSNNYEKHYADSVKGRFTISRDNAKNSLYLQMNSLRAEDTAVYYCAREGDYFDYWGQGTLVTVSS VL: DIVLTQTPLSLSVTPGQPASISCRASESVDSFGATFMHWYLQKPGQPPQLLIYLASNLESGVPDRFSGSGSGTDFTLKISRVEAEDVGVYYCQQNNEDPYTFGQGTKLEIKR | – | – | 23.4 | – | –
5 | TPP-3658 (HU1573-V1-hIgG2Kappa) (antibody, V domains shown, also called TPP-3658 VK7-3) VH: EVQLVESGGGLVQPGGSLRLSCAASGFTFSNYYLNWVRQAPGKGLEWVADIRLKSNNYEKHYAESVKGRFTISRDDSKNSLYLQMNSLKTEDTAVYYCIREGDYFDYWGQGTTVTVSS VL: DIVLTQSPASLAVSPGQRATITCKASESVDSFGATFMHWYQQKPGQPPKLLIYLASNLESGVPARFSGSGSGTDFTLTINPVEANDTANYYCQQNNEDPYTFGQGTKLEIKR | 0.65 | no binding (tested: 10 µM (log M -5)) | – | – | –
6 | TPP-3639 (HU1573-V4-hIgG2Kappa) (antibody, V domains shown, also called TPP-3639 VK7-3) VH: EVQLVESGGGLVQPGGSLRLSCAASGFTFSSYYMNWVRQAPGKGLEWVADIRLKSNNYEKHYADSVKGRFTISRDNAKNSLYLQMNSLRAEDTAVYYCAREGDYFDYWGQGTLVTVSS VL: DIVLTQSPASLAVSPGQRATITCRASESVDSFGATFMHWYQQKPGQPPKLLIYLASNLESGVPARFSGSGSGTDFTLTINPVEANDTANYYCQQNNEDPYTFGQGTKLEIKR | 0.42 | – | – | no binding | –
7 | TPP-4885 (BAY1896502) (antibody, human IgG2, kappa, V domains shown, TPP-3656 with the N85D mutation in the light chain; IgG2/kappa like TPP-3656; also called type II ab BAY1896502) VH: EVQLVESGGGLVQPGGSLRLSCAASGFTFSNYYLNWVRQAPGKGLEWVGDIRLKSNNYEKHYAESVKGRFTISRDDSKNSLYLQMNSLKTEDTAVYYCAREGDYFDYWGQGTLVTVSS VL: DIVLTQSPASLAVSPGQRATITCKASESVDSFGATFMHWYQQKPGQPPKLLIYLASNLESGVPARFSGSGSGTDFTLTINPVEADDTANYYCQQNNEDPYTFGQGTKLEIKR | – | – | – | – | 14
